{
  "source": "patent US7217693B2",
  "about": "“Human G protein-coupled receptor expressed in the dorsal root ganglia” (National Research Council of Canada, priority 1997, dated 2007)",
  "data": [
    {"target": "T1, human clone 24 (Homo sapiens, UniProt Q96LB2, E310Q/I312T/I5V)", "T1 construct": "expressed in transfected cells", "T1 sequence (Q96LB2 whole entry I5V/E310Q/I312T)": "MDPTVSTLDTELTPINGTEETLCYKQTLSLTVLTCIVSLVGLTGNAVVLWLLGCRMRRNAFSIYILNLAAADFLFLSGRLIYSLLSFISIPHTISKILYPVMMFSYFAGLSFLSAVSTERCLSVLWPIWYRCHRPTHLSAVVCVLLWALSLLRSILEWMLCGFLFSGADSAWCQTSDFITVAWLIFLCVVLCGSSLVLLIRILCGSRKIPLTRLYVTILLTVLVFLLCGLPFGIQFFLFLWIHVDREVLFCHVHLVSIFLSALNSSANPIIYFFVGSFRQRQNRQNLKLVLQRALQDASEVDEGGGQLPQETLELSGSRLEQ", "assay": "Calcium signaling (FURA-2) in stably transfected HEK293 cells 293/pcDNA3-HML-HA24", "assay_type": "cell-based", "conditions": "stably transfected HEK293 cell line 293/pcDNA3-HML-HA24, FURA-2 AM, peptides added successively", "procedure": "The coding sequence of human clone 24 was transferred into a pcDNA3 vector and modified to add a haemaglutinin tag at the C-terminus of the receptor sequence. This clone, designated as pcDNA3-HML-HA24 was transfected into HEK293 cells using a modified CaCl2 method (Maniatis, Molecular Cloning: A Laboratory Manual, Cold Spring Harbor Laboratory Press (1989)). The cells were maintained in culture medium at 37° C., 5% CO2 and diluted 10 fold every 3 days.\nThe cells were inoculated in 90 mm tissue culture dishes (5×10^5 cells per flask) in Dulbecco's Modified Essential Medium (DMEM, Gibco BRL), supplemented with 10% fetal bovine serum (FBS), 100 U/ml penicillin, 100 μg/ml streptomycin and 0.25 μg/ml fungizone. One day after inoculation, cells were transiently transfected with 30 μg of plasmid DNA per dish. The cells were harvested 48 hours post transfection for analysis. The expression of the gene was first checked by immunoprecipitation and western blotting with an anti-haemaglutinin antibody. A protein of approximately 43 KD was detected in stably as well as transiently transfected HEK293 cells, but not in control cells.\nStably transfected HEK293 cells were obtained after approximately 21 days of selection in culture medium containing 800 μg/ml G418. Calcium signaling measurement was performed with one of these stably transfected cell line, 293/pcDNA3-HML-HA24. The cells were grown on a 24 mm round glass cover slides to 50–70% confluence. […] The calcium displacement was measured using a PTI (Photon Technology International) D104 photometer equipped with a PTI Delta RAM High speed multiwavelength illuminator, a PTI SC500 Shutter controller, a PTI LPS220 ARC lamp supply and the PTI FELIX software, v.1.2. […] The cells were exposed to 340 and 380 nm light and the 510 nm light emitted by the cells was recorded. […]", "values": [
      {"substance": "angiotensin III", "calcium displacement response upon stimulation": "a significant response"},
      {"substance": "Angiotensin I (DRVYIHPFHL) [peptide added to DRR-transfected cells in calcium signaling assay]", "calcium displacement response upon stimulation": "no response"},
      {"substance": "angiotensin II (DRVYIHPF) [peptide added to DRR-transfected cells in calcium signaling assay]", "calcium displacement response upon stimulation": "a significant response"}
    ]}
  ]
}
